Results reported in patent publication US20240352128A1 (published 2024).
Numbering of substitutions follows the chain as printed. Read-outs that look alike come from different tables or passages of the source.

Columns and labels:
Assay in all cases: FACS
[1] = biological target: T1, human CD16a on HEK293 cells expressing human CD16a (constructed by Genscript) (human, UniProt P08637 17-254)
[2] = biological target: T2, human CD16b as FACS target of FIGS. 6B-10B (human, UniProt O75015 17-200)
T2 chain: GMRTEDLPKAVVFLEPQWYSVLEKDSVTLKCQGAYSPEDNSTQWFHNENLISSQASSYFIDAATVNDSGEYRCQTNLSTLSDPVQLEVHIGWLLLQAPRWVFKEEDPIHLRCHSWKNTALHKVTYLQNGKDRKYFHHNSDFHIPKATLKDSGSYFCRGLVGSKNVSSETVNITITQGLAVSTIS

[3] = biological target: T3, cynomolgus monkey CD16a on HEK293 cells expressing cyno monkey CD16a (constructed by Genscript) (cynomolgus monkey, UniProt Q8SPW2 17-254)
T3 chain: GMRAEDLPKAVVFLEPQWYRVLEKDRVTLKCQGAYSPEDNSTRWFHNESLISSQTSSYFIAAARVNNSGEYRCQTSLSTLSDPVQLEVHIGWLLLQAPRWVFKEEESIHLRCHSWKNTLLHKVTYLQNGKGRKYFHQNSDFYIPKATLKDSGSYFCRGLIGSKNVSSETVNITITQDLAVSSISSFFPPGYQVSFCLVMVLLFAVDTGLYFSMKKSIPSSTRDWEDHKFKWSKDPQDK

[4] = biological target: T1, human CD16a on HEK293 cells expressing …; remark: listed apart in the source
[5] = biological target: T2, human CD16b as FACS target of FIGS. …

T1 sequence (P08637 17-254): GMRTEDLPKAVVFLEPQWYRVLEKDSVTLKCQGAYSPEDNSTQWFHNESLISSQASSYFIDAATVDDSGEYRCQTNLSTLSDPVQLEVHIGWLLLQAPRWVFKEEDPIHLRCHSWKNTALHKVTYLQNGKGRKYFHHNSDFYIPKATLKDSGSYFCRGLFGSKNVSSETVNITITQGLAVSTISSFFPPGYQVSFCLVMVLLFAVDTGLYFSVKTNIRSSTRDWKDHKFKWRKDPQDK

B1: pTT5-AR8820-3.1 mIgG1Fc (Fc fusion)
heavy: EVQLVESGGGLVQPGGSLRLSCAASGSSISRYAMAWYRQAPGKGRELVAVVRITGSPIYADFVGGRFTISRDNAKNSLYLQMNSLRAEDTAVYYCATGNFNTYTRRYSPSETWGQGTLVTVSSVPRDCGCKPCICTVPEVSSVFIFPPKPKDVLTITLTPKVTCVVVDISKDDPEVQFSWFVDDVEVHTAQTQPREEQFNSTFRSVSELPIMHQDWLNGKEFKCRVNSAAFPAPIEKTISKTKGRPKAPQVYTIPPPKEQMAKDKVSLTCMITDFFPEDITVEWQWNGQPAENYKNTQPIMDTDGSYFVYSKLNVQKSNWEAGNTFTCSVLHEGLHNHHTEKSLSHSPGK
B1 showed an EC50 [1] of 0.419 nM, an EC50 [2] of 62.3 nM and an EC50 [3] of 0.738 nM.

B2: pTT5-AR8820-1.2mIgG1Fc (Fc fusion)
heavy: B1 heavy with E1Q, L11V, L47W, A74S, S77T, Q115K, L118T
With B2 the EC50 [4] was 0.47 nM, the EC50 [5] was about 497 nM and the EC50 [3] was 0.914 nM.

B3: pTT5-AR8820-3.3 mIgG1Fc (Fc fusion)
VHH-Fc: B1 heavy with A96N
B3 showed an EC50 [1] of 0.452 nM, an EC50 [2] of 61.8 nM and an EC50 [3] of 0.751 nM.
